What was measured:
[1] = target: T1, active human C1s (CompTech A104 C1s Enzyme) (human, UniProt P09871 16-688); experiment: BLI (Octet RED96e), antibody on AHC biosensor; HuC1s Form: Active; R^2 0.9998
T1 construct: also called human active C1s; active C1s protein
T1 sequence (looked up): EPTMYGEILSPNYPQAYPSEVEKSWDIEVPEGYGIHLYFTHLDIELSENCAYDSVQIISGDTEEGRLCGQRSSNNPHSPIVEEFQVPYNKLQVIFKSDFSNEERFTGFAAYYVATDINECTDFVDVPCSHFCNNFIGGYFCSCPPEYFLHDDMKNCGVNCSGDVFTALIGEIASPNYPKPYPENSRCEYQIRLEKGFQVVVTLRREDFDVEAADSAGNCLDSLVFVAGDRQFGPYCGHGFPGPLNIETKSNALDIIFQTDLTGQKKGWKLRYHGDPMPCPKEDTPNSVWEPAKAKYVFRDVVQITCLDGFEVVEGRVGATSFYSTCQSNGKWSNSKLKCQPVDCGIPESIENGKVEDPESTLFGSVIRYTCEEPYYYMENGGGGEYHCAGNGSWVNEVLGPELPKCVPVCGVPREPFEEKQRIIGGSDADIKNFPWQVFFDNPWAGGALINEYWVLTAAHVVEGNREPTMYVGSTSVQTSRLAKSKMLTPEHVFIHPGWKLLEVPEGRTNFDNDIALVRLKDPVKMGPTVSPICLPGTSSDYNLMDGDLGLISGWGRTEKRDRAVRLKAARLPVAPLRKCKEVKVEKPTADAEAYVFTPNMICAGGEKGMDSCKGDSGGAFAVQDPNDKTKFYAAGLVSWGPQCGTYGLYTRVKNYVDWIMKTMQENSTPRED
Description: Bio-Layer Interferometry technology was used for anti-C1s antibody affinity measurement and binding kinetics determinations with OCTET® RED96e system (Sartorius AG). Pre-hydrated Anti-Human IgG Fc Capture (AHC) biosensors were first equilibrated in 1×KB (Kinetic Buffer, 1×PBS pH 7.4+0.02% Tween-20+0.1% BSA) for 120 sec for the first baseline, followed by loading with […] anti-C1s antibody (2-7, FIG. 3A; 2-8, FIG. 3B; hz2-7(H1L2), FIG. 3C; hz2-8(H1L2 G80A/T82A, FIG. 3D) onto AHC biosensors for 240 sec. Then, the second baseline signal was established for 120 sec before association with various concentrations of active human C1s (CompTech A104) for 240-360 sec. At last, analyte was dissociated in 1×KB for 360 sec. Anti-C1s antibodies 2-7 and 2-8 were also analyzed against human C1s proenzyme (CompTech A103) (data not shown). Data analysis was carried out using OCTET® Data Analysis HT Software (Sartorius AG). KD, kₒₙ, koff and R² values were calculated for each antibody and target combination, as summarized in FIG. 3E showing high affinity binding with KD values in the low nanomolar to picomolar range.

[2] = target: T2, rat C1s (produced in house) (rat, UniProt Q6P6T1 16-688); experiment: BLI (Octet RED96e), antibody on AHC biosensor; C1s Species: Rat; R^2 0.9776
T2 construct: also called RaC1s
T2 sequence: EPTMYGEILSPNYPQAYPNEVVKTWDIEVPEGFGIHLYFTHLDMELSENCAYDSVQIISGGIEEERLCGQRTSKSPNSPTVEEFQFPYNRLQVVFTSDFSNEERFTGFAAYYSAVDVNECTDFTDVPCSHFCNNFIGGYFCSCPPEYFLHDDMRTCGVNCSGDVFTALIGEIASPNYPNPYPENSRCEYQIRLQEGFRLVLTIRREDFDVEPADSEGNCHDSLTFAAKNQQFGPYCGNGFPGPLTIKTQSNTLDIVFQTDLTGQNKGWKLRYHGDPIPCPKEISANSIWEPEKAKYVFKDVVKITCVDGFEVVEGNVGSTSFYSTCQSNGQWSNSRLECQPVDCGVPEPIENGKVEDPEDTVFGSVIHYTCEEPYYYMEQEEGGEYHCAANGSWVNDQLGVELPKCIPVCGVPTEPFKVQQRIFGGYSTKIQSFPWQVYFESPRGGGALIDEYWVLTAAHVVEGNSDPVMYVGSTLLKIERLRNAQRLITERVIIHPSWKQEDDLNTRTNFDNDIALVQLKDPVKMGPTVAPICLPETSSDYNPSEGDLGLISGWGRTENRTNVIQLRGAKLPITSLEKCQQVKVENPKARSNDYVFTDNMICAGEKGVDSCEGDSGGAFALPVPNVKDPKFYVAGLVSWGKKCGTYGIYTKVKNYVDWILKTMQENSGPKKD
Description: At last, analyte was dissociated in 1×KB for 360 sec. Data analysis was done using OCTET® Data Analysis HT Software (Sartorius AG).

B1: Anti-C1s antibody hz2-8 (H1L2 G80A/T82A) (antibody, V domains shown)
VH: QVQLVQSGAEVKKPGASVKVSCKASGFNIKEYYMHWVRQAPEQGLEWMGWIDPENADAIYAQKFQGRVTITADTSTNTAYMELSSLRSEDTAVYYCARSRLFFAYWGQGTLVTVSS
VL: DIQMTQSPKSLSASVGDRVTITCRASQDVRTALDWYQQKPGQSPKLLIYSASYRYSGVPSRFSGSGSGTDFTLTISSLQPEDFATYYCQQQYTTPYTFGQGTKLEIKR
notes: Humanized variant with G80A and T82A in HC CDR2 (already in the entry), human IgG1 / kappa
[1]
  Kd: 1.2 nM
  koff: 0.00029 s⁻¹
  kon: 240000 M⁻¹ s⁻¹

B2: Anti-C1s antibody hz2-7(H1L2) (antibody, V domains shown)
VH: EVQLLESGGGLVQPGGSLRLSCAASGFTFSNYFMNWVRQAPGKGLEWVSEIRLKFTNYATHYADSVKGRFTISRDDSKSTLYLQMNSLRAEDTAVYYCTRDYGSRNGYFDYWGQGTLVTVSS
VL: DIVMTQTPLSLPVTPGEPASISCRSSKSLLHSNGNTFLYWFLQKPGQSPQLLIYRMSNLASGVPDRFSGSGSGTDFTLKISRVEAEDVGVYYCMQHLEYPYTFGGGTKLEIKR
notes: Humanized, human IgG1 / kappa; also called hz2-7(1L2)
[1]
  Kd: 0.24 nM
  koff: 7e-05 s⁻¹
  kon: 290000 M⁻¹ s⁻¹

B3: Anti-C1s antibody 2-8 (antibody, V domains shown)
VH: EVQLQQSGAELVRPGALVKLSCKASGFNIKEYYMHWVKQRPEQGLEWIGWIDPENGDTIYDPKFQGKASITADTSSNTAYLQLSSLTSEDTAVYYCARSRLFFAYWGQGTLVTVSA
VL: DIVMTQSHKFMSTSVGDRVSFTCKASQDVRTAVDWYQQKPGQSPKLLIYSASYRYTGVPDRFTGTGSGTDFTFTISSVQAEDLAVYFCQQQYTTPYTFGGGTKLEIKT
notes: the HC/LC entries may hold it too; also called clone 2-8
[2]
  Kd: 17 nM
  koff: 0.0012 s⁻¹
  kon: 68000 M⁻¹ s⁻¹

— patent publication US20230051715A1 (MABWELL THERAPEUTICS, published 2023)
